In patent publication US20160185837A1 (Medimmune Limited, priority 2013, published 2016):

T1: rat GIP receptor (rGIPr) (Rattus norvegicus, UniProt P43219)
T1 construct: expressed in transfected cells; host or cells: HEK293s or CHO cells
T1 sequence (P43219 19-455): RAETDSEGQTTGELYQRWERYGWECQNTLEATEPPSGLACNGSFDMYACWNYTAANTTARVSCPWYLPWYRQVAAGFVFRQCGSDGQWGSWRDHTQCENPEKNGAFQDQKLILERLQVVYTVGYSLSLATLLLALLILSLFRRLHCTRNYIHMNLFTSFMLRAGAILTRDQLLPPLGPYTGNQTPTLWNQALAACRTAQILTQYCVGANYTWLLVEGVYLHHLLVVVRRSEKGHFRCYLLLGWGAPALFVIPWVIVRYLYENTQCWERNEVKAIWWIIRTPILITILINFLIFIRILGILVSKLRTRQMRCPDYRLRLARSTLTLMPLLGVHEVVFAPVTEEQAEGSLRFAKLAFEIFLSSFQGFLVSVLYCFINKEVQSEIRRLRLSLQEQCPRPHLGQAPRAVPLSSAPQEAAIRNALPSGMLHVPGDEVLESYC

T2: mouse GIP receptor (mGIPr) (Mus musculus, UniProt Q0P543)
T2 construct: expressed in transfected cells; host or cells: HEK293s or CHO cells
T2 sequence (Q0P543 19-460): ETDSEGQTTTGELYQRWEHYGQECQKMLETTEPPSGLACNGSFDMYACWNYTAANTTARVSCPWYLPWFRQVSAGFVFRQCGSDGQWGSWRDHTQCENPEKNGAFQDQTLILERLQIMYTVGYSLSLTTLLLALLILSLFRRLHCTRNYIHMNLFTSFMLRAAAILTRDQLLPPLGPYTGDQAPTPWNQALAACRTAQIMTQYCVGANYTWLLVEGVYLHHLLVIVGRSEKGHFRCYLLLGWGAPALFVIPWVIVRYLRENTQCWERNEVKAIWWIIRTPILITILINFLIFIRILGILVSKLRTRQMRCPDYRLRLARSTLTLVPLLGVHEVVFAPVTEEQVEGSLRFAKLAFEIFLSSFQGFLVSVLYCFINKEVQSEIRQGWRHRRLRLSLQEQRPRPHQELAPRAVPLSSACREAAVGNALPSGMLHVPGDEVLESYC

T3: rat GLP-1 receptor (rGLP-1r) (Rattus norvegicus, UniProt P32301)
T3 construct: expressed in transfected cells; host or cells: HEK293s or CHO cells
T3 sequence (P32301 22-463): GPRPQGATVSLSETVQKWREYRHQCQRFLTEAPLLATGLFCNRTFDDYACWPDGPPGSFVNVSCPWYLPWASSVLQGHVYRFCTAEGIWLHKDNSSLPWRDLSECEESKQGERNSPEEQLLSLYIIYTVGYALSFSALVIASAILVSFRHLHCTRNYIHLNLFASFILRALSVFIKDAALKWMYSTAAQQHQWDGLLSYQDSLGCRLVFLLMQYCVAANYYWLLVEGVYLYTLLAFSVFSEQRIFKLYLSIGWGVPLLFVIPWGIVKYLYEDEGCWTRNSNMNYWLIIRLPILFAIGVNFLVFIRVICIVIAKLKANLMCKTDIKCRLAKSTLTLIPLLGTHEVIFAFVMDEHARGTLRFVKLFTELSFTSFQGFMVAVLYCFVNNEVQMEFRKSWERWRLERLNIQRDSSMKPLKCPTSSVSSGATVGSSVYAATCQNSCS

T4: mouse GLP-1 receptor (mGLP-1r) (Mus musculus, UniProt O35659)
T4 construct: expressed in transfected cells; host or cells: HEK293s or CHO cells
T4 sequence (O35659 22-463): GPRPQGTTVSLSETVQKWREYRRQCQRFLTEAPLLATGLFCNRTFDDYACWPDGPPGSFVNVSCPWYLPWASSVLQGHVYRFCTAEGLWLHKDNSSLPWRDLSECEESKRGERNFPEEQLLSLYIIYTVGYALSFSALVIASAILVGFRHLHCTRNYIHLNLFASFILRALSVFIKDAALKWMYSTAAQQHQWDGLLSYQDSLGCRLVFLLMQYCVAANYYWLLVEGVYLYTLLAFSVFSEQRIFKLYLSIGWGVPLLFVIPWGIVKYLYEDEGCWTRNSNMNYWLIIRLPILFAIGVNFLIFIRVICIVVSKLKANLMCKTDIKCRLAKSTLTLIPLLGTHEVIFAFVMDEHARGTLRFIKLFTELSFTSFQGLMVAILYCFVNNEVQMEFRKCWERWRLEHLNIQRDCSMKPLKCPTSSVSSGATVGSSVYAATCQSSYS

T5: human GIP receptor (hGIPr) (Homo sapiens, UniProt P48546)
T5 construct: expressed in transfected cells
T5 sequence (P48546 22-466): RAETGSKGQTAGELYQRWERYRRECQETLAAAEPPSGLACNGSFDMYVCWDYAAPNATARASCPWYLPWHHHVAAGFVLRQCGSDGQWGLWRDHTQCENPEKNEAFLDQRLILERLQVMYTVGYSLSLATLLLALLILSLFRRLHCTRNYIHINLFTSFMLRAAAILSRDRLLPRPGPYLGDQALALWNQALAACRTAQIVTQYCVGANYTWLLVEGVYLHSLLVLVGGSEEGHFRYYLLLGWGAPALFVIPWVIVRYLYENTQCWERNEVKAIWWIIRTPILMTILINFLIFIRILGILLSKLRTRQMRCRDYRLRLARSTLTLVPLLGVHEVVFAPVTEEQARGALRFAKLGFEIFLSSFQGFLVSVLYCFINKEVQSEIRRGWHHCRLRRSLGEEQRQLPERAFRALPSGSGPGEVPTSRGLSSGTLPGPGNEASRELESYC


Columns and labels:
Type in all cases: cell-based
[1] = target: T6, human glucagon receptor (GCGr) (Homo sapiens, UniProt P47871); test: BSA-cAMP assay, cells expressing human glucagon receptor; conditions: Batch 1, read-out: hGCGr cAMP activity EC50
T6 construct: expressed in transfected cells; host or cells: HEK293s or CHO cells
Method: (§1) One basic cAMP assays was performed, differing in the medium used for the assay, the “BSA-cAMP assay”:
(§2) BSA-based assay medium: 0.1% bovine serum albumin (BSA) in
(§3) In certain aspects, the assay can also be carried out in medium supplemented with serum albumin that corresponds to the receptor being tested, e.g., human serum albumin for testing cAMP activity at hGIPr or hGLP-1r, rat serum albumin for testing cAMP activity at rGIPr or rGLP-1r, and so on. […] All sample dilutions were made in duplicate.
(§4) A frozen cryo-vial of cells expressing the receptor of interest was thawed rapidly in a water-bath, transferred to pre-warmed assay media and spun at 240×g for 5 minutes. Cells were re-suspended in assay buffer at an optimized concentration (e.g., hGLP-1r and hGIPr cells at 0.5×10^5 cells/ml).
(§5) To this, 5 μL cell suspension was added and the plates incubated at room temperature for 30 minutes.
(§6) cAMP levels were measured using a commercially available cAMP dynamic 2 HTRF kit (Cisbio, Cat #62AM4PEJ), following the two step protocol as per manufacturer's recommendations. In brief; anti-cAMP cryptate (donor fluorophore) and cAMP-d2 (acceptor fluorophore) were made up separately by diluting each 1/20 in conjugate & lysis buffer provided in the kit. 5 μL anti-cAMP cryptate was added to all wells of the assay plate, and 5 μL cAMP-d2 added to all wells except non-specific binding (NSB) wells, to which conjugate and lysis buffer was added. […] Data was transformed to % Delta F as described in manufacturer's guidelines and then transformed to percent activation of maximal native agonist response and analysed by 4-parameter logistic fit to determine EC50 values.
(§7) We used unconstrained 4 parameter logistic fit of data, curve mid-point to determine EC50. This was tested on two occasions, not two batches.

[2] = target: T1, rat GIP receptor (rGIPr); test: BSA-cAMP assay, cells expressing rat GIP receptor; conditions: Batch 1; BSA-cAMP assay; read-out: rGIPr cAMP activity EC50
Method: as §1, §2, §3, §4, §5, §6, §7
(§8) In order to be able to carry out in vivo studies in rodents, IP088 was tested for potency against the mouse receptors mGIPr and mGLP-1r as well as the rat receptors rGIPr and rGLP-1r, using cells expressing the respective receptors in the cAMP assay described above.

[3] = target: T2, mouse GIP receptor (mGIPr); test: BSA-cAMP assay, cells expressing mouse GIP receptor; conditions: Batch 1; BSA-cAMP assay; read-out: mGIPr cAMP activity EC50
Method: as §1, §2, §3, §4, §5, §6, §7, §8

[4] = target: T3, rat GLP-1 receptor (rGLP-1r); test: BSA-cAMP assay, cells expressing rat GLP-1 receptor; conditions: Batch 1; BSA-cAMP assay; read-out: rGLP1r cAMP activity EC50
Method: as §1, §2, §3, §4, §5, §6, §7, §8

[5] = target: T4, mouse GLP-1 receptor (mGLP-1r); test: BSA-cAMP assay, cells expressing mouse GLP-1 receptor; conditions: Batch 1; BSA-cAMP assay; read-out: mGLP1r cAMP activity EC50
Method: as §1, §2, §3, §4, §5, §6, §7, §8

[6] = target: T7, human GLP-1 receptor (hGLP-1r) (Homo sapiens, UniProt P43220); test: BSA-cAMP assay, cells expressing human GLP-1 receptor; conditions: Batch 1; BSA-cAMP assay; read-out: hGLP1r cAMP activity EC50
T7 construct: expressed in transfected cells
Method: as §1, §2, §3, §4, §5, §6, §7

[7] = target: T5, human GIP receptor (hGIPr); test: BSA-cAMP assay, cells expressing human GIP receptor; conditions: Batch 1; BSA-cAMP assay; read-out: hGIPr cAMP activity EC50
Method: For human GIPr, two different lines were used, shown as “hGIPr” and “hGIPr (C3)” in Table 11.
as §1, §2, §3, §4, §5, §6, §7

T6 sequence (P47871 26-477): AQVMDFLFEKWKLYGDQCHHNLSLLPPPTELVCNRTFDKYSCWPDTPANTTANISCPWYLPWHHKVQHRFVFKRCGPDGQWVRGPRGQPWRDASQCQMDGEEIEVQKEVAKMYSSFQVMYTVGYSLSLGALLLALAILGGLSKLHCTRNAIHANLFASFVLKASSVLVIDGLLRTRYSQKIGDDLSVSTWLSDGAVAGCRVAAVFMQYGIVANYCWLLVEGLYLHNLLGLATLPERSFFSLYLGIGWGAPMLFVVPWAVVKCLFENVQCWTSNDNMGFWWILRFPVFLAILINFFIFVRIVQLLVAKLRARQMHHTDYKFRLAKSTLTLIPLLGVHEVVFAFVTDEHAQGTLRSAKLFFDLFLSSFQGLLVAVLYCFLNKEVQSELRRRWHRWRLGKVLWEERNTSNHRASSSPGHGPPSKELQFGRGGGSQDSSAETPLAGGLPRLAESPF
T7 sequence (P43220 24-463): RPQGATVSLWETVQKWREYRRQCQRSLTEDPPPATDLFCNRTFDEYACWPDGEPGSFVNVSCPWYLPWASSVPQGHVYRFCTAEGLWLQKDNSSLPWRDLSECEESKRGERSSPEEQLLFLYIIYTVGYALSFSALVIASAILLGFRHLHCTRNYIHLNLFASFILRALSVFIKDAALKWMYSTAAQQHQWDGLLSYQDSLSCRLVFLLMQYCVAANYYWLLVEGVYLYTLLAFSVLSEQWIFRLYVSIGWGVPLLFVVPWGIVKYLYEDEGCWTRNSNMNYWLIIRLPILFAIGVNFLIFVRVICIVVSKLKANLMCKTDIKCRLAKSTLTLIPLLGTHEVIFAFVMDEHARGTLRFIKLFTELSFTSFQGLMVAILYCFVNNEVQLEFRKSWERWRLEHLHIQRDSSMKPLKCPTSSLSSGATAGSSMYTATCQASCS

Molecule | EC50 [1] [nM] | EC50 [2] [nM] | EC50 [3] [nM] | EC50 [4] [nM] | EC50 [5] [nM] | EC50 [6] [nM] | EC50 [7] [nM]
IP301 (protein) YSEGTFTSDVSSYLEREAIDEFIAWLLKGGAAAGGSGSTASSGSGSATGGGGAATHTCPPC | 12000 | 4.7 | 22 | 0.058 | 1.9 | 0.31 | 0.12
IP310 (protein) YSEGTFTSDVSSYMERQAIDEFIAWLLKGKAAAGGSGSTASSGSGSATGGGGAATHTCPPC | 3700 | 5.2 | 31 | 0.038 | 1.4 | 0.35 | 0.15
IP378 (protein) YSEGTFTSLYRILLERQAIDEFIAWLLKGGAAAGGSGSTASSGSGSATGGGGAATHTCPPC | > 2250 | 0.4 | 3.1 |  | 100 | 17 | 
IP312 (protein) YSEGTFISDVSSYMERQAIDEFIAWLLKGGAAAGGSGSTASSGSGSATGGGGAATHTCPPC | > 5310 | 1.2 | 16 | 5.4 | > 1060 | > 5310 | 0.048
IP365 (protein) YSEGMHTSDFSKLLERQAIDEFIAWLLKGGAAAGGSGSTASSGSGSATGGGGAATHTCPPC | > 10700 | 0.12 | 17 | 1.5 | 11 | 0.87 | 0.02
IP394 (protein) YSEGMHTSDLSKLLERQAIDEFIAWLLKGGAAAGGSGSTASSGSGSATGGGGAATHTCPPC | > 17600 | 0.06 | 10 | 0.23 | 10 |  | 0.0095
IP366 (protein) YSEGTFTSDYRMLKERQAIDEFIAWLLKGGAAAGGSGSTASSGSGSATGGGGAATHTCPPC | > 10200 | 0.016 | 0.056 | 14 | 100 | 6.1 | 0.14
IP306 (protein) YSEGTFTSDYSKLLERQAIDEFIAWLLKGGAAAGGSGSTASSGSGSATGGGGAATHTCPPC | 220 | 0.026 | 0.25 | 0.015 | 0.25 | 0.1 | 0.011
IP309 (protein) YSEGTFISDVSSYLERQAIDEFIAWLLKGGAAAGGSGSTASSGSGSATGGGGAATHTCPPC | 900 | 1.3 | 15 | 1.7 | 16 | 7.7 | 0.086
IP307 (protein) YSEGTFTSDVSSYMERQAIDEFIAWLLKQGAAAGGSGSTASSGSGSATGGGGAATHTCPPC | 4100 | 5.2 | 31 | 0.21 | 6.5 | 1.6 | 0.091
IP315 (protein) YSEGTFISDYSSYLERQAIDEFIAWLLKGGAAAGGSGSTASSGSGSATGGGGAATHTCPPC | 280 | 0.096 | 0.36 | 13 | > 5460 | > 5460 | 0.024
IP364 (protein) YSEGTFTSDFSKLLERQAIDEFIAWLLKGGAAAGGSGSTASSGSGSATGGGGAATHTCPPC | 610 | 0.02 | 0.5 | 0.058 | 0.69 | 0.18 | 0.0085
